{"source": "patent US20160230226A1", "target": "IL13Rα2 (human) (UniProt Q14627)", "sequence (Q14627 27-380)": "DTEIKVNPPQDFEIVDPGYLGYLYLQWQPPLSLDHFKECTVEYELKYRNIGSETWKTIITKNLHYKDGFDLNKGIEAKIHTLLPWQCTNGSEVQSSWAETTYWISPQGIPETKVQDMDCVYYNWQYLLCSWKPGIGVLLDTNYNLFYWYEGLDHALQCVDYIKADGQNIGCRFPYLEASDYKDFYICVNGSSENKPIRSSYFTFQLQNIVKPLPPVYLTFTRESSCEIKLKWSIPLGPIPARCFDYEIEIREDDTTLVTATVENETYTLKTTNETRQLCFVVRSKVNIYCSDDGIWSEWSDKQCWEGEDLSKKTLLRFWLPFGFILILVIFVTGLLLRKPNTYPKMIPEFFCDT", "assay": "cell-based or functional assay", "data": [{"substance": "IL-13 (from UniProt P35225 35-146) (ligand)", "values": [{"measurement": "IL-13 concentration needed for the same CCL26 or periostin gene induction in IMR90 cells pre-stimulated with TNFα (elevated IL13Rα2) versus not pre-stimulated", "value": 10, "unit": "fold"}]}]}
